Results: patent US9187553

Molecular target: recombinant human FceRIa D2/D1 subunit (human) (UniProt P12319)
Test: ELISA, IgE captured by His-tagged receptor on Ni-treated plate

Chain of UniProt P12319 (P12319 26-205): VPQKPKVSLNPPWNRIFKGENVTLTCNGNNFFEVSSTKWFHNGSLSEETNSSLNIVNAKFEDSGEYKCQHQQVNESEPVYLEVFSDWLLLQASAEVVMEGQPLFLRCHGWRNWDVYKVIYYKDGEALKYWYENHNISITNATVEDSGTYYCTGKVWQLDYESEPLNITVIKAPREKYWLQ

OD signal at 50 ng/ml: 1.2 OD
Substance: human myeloma IgE (BED) (antibody)
